*1 amine or outer side, *2 acyl side, *3 side chain or, on linkers, in order; H or OH if unused. Primed or numbered codes have the meaning given here. The star is where a group is joined. C20 diacid = O=C(O)CCCCCCCCCCCCCCCCCCC(=O)*; C18 diacid = O=C(O)CCCCCCCCCCCCCCCCC(=O)*; γGlu = O=C(O)[C@H](CCC(=O)[*:2])N[*:1]; Inp′ = not defined here; AEEA = NCCOCCOCC(=O)O
T1: human amylin receptor (AMY3) on CHO-K1/Gal5/AMY3 cells (human, UniProt P30988 25-474; O60896 24-148)
T1 sequence (looked up) 1: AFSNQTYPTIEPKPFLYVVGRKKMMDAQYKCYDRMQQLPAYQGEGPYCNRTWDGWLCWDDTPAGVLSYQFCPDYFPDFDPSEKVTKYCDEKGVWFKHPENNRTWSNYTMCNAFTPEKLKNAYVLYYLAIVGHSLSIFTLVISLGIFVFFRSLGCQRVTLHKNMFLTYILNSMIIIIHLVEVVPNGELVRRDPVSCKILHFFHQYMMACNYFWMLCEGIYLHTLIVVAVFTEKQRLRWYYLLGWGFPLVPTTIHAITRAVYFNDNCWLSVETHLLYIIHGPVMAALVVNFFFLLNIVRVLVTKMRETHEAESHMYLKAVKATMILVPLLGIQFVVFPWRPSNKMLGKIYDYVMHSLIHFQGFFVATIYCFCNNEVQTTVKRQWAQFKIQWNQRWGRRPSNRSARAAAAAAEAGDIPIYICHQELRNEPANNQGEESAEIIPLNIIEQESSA
T1 sequence (looked up) 2: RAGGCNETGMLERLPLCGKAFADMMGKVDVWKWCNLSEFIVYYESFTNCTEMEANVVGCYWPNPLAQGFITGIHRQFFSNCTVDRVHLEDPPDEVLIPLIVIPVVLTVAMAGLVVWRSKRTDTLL

B1: calcitonin derivative M16 (peptide)
peptide: {C20 diacid-γGlu}-ASQLSTAVLGRLSQELHRLQDYPRTDSGSGSP-NH2
SMILES: CC(C)C[C@H](NC(=O)[C@H](CCCNC(=N)N)NC(=O)CNC(=O)[C@H](CC(C)C)NC(=O)[C@@H](NC(=O)[C@H](C)NC(=O)[C@@H](NC(=O)[C@H](CO)NC(=O)[C@H](CC(C)C)NC(=O)[C@H](CCC(N)=O)NC(=O)[C@H](CO)NC(=O)[C@H](C)NC(=O)CC[C@H](NC(=O)CCCCCCCCCCCCCCCCCCC(=O)O)C(=O)O)[C@@H](C)O)C(C)C)C(=O)N[C@@H](CO)C(=O)N[C@@H](CCC(N)=O)C(=O)N[C@@H](CCC(=O)O)C(=O)N[C@@H](CC(C)C)C(=O)N[C@@H](Cc1c[nH]cn1)C(=O)N[C@@H](CCCNC(=N)N)C(=O)N[C@@H](CC(C)C)C(=O)N[C@@H](CCC(N)=O)C(=O)N[C@@H](CC(=O)O)C(=O)N[C@@H](Cc1ccc(O)cc1)C(=O)N1CCC[C@H]1C(=O)N[C@@H](CCCNC(=N)N)C(=O)N[C@H](C(=O)N[C@@H](CC(=O)O)C(=O)N[C@@H](CO)C(=O)NCC(=O)N[C@@H](CO)C(=O)NCC(=O)N[C@@H](CO)C(=O)N1CCC[C@H]1C(N)=O)[C@@H](C)O
B2: calcitonin derivative M32 (peptide)
peptide: {C20 diacid-γGlu}-RSQLSTEVLGRLSQELHRLQDYPRTDVGSGSP-NH2
SMILES: CC(C)C[C@H](NC(=O)[C@H](CCCNC(=N)N)NC(=O)CNC(=O)[C@H](CC(C)C)NC(=O)[C@@H](NC(=O)[C@H](CCC(=O)O)NC(=O)[C@@H](NC(=O)[C@H](CO)NC(=O)[C@H](CC(C)C)NC(=O)[C@H](CCC(N)=O)NC(=O)[C@H](CO)NC(=O)[C@H](CCCNC(=N)N)NC(=O)CC[C@H](NC(=O)CCCCCCCCCCCCCCCCCCC(=O)O)C(=O)O)[C@@H](C)O)C(C)C)C(=O)N[C@@H](CO)C(=O)N[C@@H](CCC(N)=O)C(=O)N[C@@H](CCC(=O)O)C(=O)N[C@@H](CC(C)C)C(=O)N[C@@H](Cc1c[nH]cn1)C(=O)N[C@@H](CCCNC(=N)N)C(=O)N[C@@H](CC(C)C)C(=O)N[C@@H](CCC(N)=O)C(=O)N[C@@H](CC(=O)O)C(=O)N[C@@H](Cc1ccc(O)cc1)C(=O)N1CCC[C@H]1C(=O)N[C@@H](CCCNC(=N)N)C(=O)N[C@H](C(=O)N[C@@H](CC(=O)O)C(=O)N[C@H](C(=O)NCC(=O)N[C@@H](CO)C(=O)NCC(=O)N[C@@H](CO)C(=O)N1CCC[C@H]1C(N)=O)C(C)C)[C@@H](C)O
B3: calcitonin derivative M49 (peptide)
peptide: {C20 diacid-γGlu}-ASQLSTAVLGRLSQELHRLQDFPRTDVGSGSP-NH2
SMILES: CC(C)C[C@H](NC(=O)[C@H](CCCNC(=N)N)NC(=O)CNC(=O)[C@H](CC(C)C)NC(=O)[C@@H](NC(=O)[C@H](C)NC(=O)[C@@H](NC(=O)[C@H](CO)NC(=O)[C@H](CC(C)C)NC(=O)[C@H](CCC(N)=O)NC(=O)[C@H](CO)NC(=O)[C@H](C)NC(=O)CC[C@H](NC(=O)CCCCCCCCCCCCCCCCCCC(=O)O)C(=O)O)[C@@H](C)O)C(C)C)C(=O)N[C@@H](CO)C(=O)N[C@@H](CCC(N)=O)C(=O)N[C@@H](CCC(=O)O)C(=O)N[C@@H](CC(C)C)C(=O)N[C@@H](Cc1c[nH]cn1)C(=O)N[C@@H](CCCNC(=N)N)C(=O)N[C@@H](CC(C)C)C(=O)N[C@@H](CCC(N)=O)C(=O)N[C@@H](CC(=O)O)C(=O)N[C@@H](Cc1ccccc1)C(=O)N1CCC[C@H]1C(=O)N[C@@H](CCCNC(=N)N)C(=O)N[C@H](C(=O)N[C@@H](CC(=O)O)C(=O)N[C@H](C(=O)NCC(=O)N[C@@H](CO)C(=O)NCC(=O)N[C@@H](CO)C(=O)N1CCC[C@H]1C(N)=O)C(C)C)[C@@H](C)O
B4: calcitonin derivative M64 (peptide)
peptide: {C20 diacid-γGlu-AEEA-AEEA-AEEA-AEEA-AEEA-AEEA}-ASQLSTAVLGRLSEELHRLQDYPRTDVGSGSP-NH2
SMILES: CC(C)C[C@H](NC(=O)[C@H](CCCNC(=N)N)NC(=O)CNC(=O)[C@H](CC(C)C)NC(=O)[C@@H](NC(=O)[C@H](C)NC(=O)[C@@H](NC(=O)[C@H](CO)NC(=O)[C@H](CC(C)C)NC(=O)[C@H](CCC(N)=O)NC(=O)[C@H](CO)NC(=O)[C@H](C)NC(=O)COCCOCCNC(=O)COCCOCCNC(=O)COCCOCCNC(=O)COCCOCCNC(=O)COCCOCCNC(=O)COCCOCCNC(=O)CC[C@H](NC(=O)CCCCCCCCCCCCCCCCCCC(=O)O)C(=O)O)[C@@H](C)O)C(C)C)C(=O)N[C@@H](CO)C(=O)N[C@@H](CCC(=O)O)C(=O)N[C@@H](CCC(=O)O)C(=O)N[C@@H](CC(C)C)C(=O)N[C@@H](Cc1c[nH]cn1)C(=O)N[C@@H](CCCNC(=N)N)C(=O)N[C@@H](CC(C)C)C(=O)N[C@@H](CCC(N)=O)C(=O)N[C@@H](CC(=O)O)C(=O)N[C@@H](Cc1ccc(O)cc1)C(=O)N1CCC[C@H]1C(=O)N[C@@H](CCCNC(=N)N)C(=O)N[C@H](C(=O)N[C@@H](CC(=O)O)C(=O)N[C@H](C(=O)NCC(=O)N[C@@H](CO)C(=O)NCC(=O)N[C@@H](CO)C(=O)N1CCC[C@H]1C(N)=O)C(C)C)[C@@H](C)O
B5: calcitonin derivative M30 (peptide)
peptide: {C20 diacid-γGlu}-SSQLSTAVLGRLSQELHRLQDYPRTDVGSGSP-NH2
SMILES: CC(C)C[C@H](NC(=O)[C@H](CCCNC(=N)N)NC(=O)CNC(=O)[C@H](CC(C)C)NC(=O)[C@@H](NC(=O)[C@H](C)NC(=O)[C@@H](NC(=O)[C@H](CO)NC(=O)[C@H](CC(C)C)NC(=O)[C@H](CCC(N)=O)NC(=O)[C@H](CO)NC(=O)[C@H](CO)NC(=O)CC[C@H](NC(=O)CCCCCCCCCCCCCCCCCCC(=O)O)C(=O)O)[C@@H](C)O)C(C)C)C(=O)N[C@@H](CO)C(=O)N[C@@H](CCC(N)=O)C(=O)N[C@@H](CCC(=O)O)C(=O)N[C@@H](CC(C)C)C(=O)N[C@@H](Cc1c[nH]cn1)C(=O)N[C@@H](CCCNC(=N)N)C(=O)N[C@@H](CC(C)C)C(=O)N[C@@H](CCC(N)=O)C(=O)N[C@@H](CC(=O)O)C(=O)N[C@@H](Cc1ccc(O)cc1)C(=O)N1CCC[C@H]1C(=O)N[C@@H](CCCNC(=N)N)C(=O)N[C@H](C(=O)N[C@@H](CC(=O)O)C(=O)N[C@H](C(=O)NCC(=O)N[C@@H](CO)C(=O)NCC(=O)N[C@@H](CO)C(=O)N1CCC[C@H]1C(N)=O)C(C)C)[C@@H](C)O

Target: T1, human amylin receptor (AMY3) on …
Experiment: cell-based or functional assay

Binder | EC50/nM, CRE-luciferase in amylin receptor/CRE-luc CHO cells [nM]
B1 | 0.025
B2 | 0.03
B3 | 0.075
{C18 diacid-Inp′}-ASQLSTAVLGRLSDELHRLQDYPRTDVGSGSP-NH2 [calcitonin derivative M48] | 0.063
B4 | 0.044
B5 | 0.017
